Measured values from paper PMC11754657.

How the values were obtained:
[1] = biological target: rabbit skeletal muscle filamentous actin (rabbit) (UniProt P68135)
[2] = biological target: rabbit skeletal muscle filamentous actin (rabbit) (UniProt P68135); remark: listed apart in the source

| velocity of actin filaments in the in vitro gliding filament assay (motor domain held by anti-GFP, 10 mM KCl, 2 mM ATP, 30 °C) [1] [nm/s] | K ATPase: F-actin at half-maximal activation of the steady-state ATPase (NADH-coupled assay, 20 °C, 2 mM MgATP, 50 mM KCl) [2] [µM] | kcat: extrapolated maximum rate of the F-actin activated steady-state ATPase (NADH-coupled assay, 20 °C) [2] [s⁻¹] | Substance |
| --- | --- | --- | --- |
| 216 | 114 | 0.87 | jordan (p.D1647G) MYO15A motor domain complex M15-2IQ:ELC:RLC (1:1:1) (from UniProt P60661 1-151) |
| 473 | 29.1 | 5.8 | wild-type MYO15A motor domain complex M15-2IQ:ELC:RLC (1:1:1) (from UniProt P60661 1-151) |
